# Laboratory results: US8552166, “High-affinity nucleic acid aptamers against sclerostin protein” (The University of Hong Kong)
# Biological target: Sclerostin (SOST) (Mus musculus, UniProt Q99P68 Q99P68:1-211)
# Assay: ITC; PBS, 25 C; n=0.91, dH -10.9 kcal/mol, TdS -2.3 kcal/mol
# Details: tags: GST fusion (pGEX-4T1, E. coli BL21(DE3)); parallel G4 (CD, Tm 75 C)
# Protocol: Sclerostin-aptamer interaction was investigated by studying the thermodynamics of the interaction of aptamer Scl 2 with sclerostin by Isothermal Titration Calorimetry. In the upper panel of FIG. 7 the calorimetric titrations of the aptamers into sclerostin solution conducted at 25° C. An exothermic heat pulse was observed after each injection of aptamers into the protein solution. The binding stoichiometry was fitted using simple single site binding model. […] The dissociation constant for the interaction of aptamer Scl 2 with sclerostin is 500 nM that is a competitive value in DNA-protein interactions. In addition, the values of ΔH and ΔS reveal that the binding processes are enthalpically driven with a favorable enthalpy of reaction (ΔH) at 25° C. of −10.9 kcal/mol offset by an unfavorable entropy of reaction (TΔS=−2.3 kcal/mol).
# For Isothermal Titration Calorimetry, equilibrium binding studies between anti-sclerostin aptamers and scleorstin are performed on MicroCal VP-ITC. In a typical ITC experiment, 15 μM GST-sclerostin or 20 μM GST was loaded into the cell with 200 μM aptamer or random sequence in the titrating syringe. GST-sclerostin and GST were dialyzed into the PBS buffer with a MWCO of 10,000. The titration experiments were performed at 25° C. with an initial 0.2 μl injection, followed by thirty 1.2 μl A injections. The spacing between injections was 200 s. […]
# Chain of Sclerostin (SOST) (Q99P68 whole entry, one chain of several): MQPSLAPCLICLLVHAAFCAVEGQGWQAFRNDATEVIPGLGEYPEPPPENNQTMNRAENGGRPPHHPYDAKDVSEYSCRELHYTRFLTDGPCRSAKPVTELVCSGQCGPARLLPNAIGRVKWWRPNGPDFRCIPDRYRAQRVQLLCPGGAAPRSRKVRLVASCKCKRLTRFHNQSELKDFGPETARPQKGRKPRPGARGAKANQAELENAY
binder,measurement,value
TTGCGCGTTAATTGGGGGGGTGGGTGGGTT (ssDNA) [Scl 2],Kd,500 nM
